Test results reported in the DeepSol protein solubility set.

Assay: soluble on expression in E. coli; label from the status in PepcDB or PDB records

Row | Sequence | soluble on expression in E. coli
1 | MGSDKIHHHHHHMRTEFIPPSVTRAAFRLPTLSRLPPLTALRAFVVAARHASFSRAAEELHVSTAAIGQQVRILETHLGQPLFSRQRGELVLTDAGSTLYPGLADAFETMIGSLSDLMASGSRRQVKVLAEGCFAARWLAPRLGRIVPALGDVDIWIESLEGDAIDLTQFDADCAIVATHGQIPGFIHEPLFADTVSAVCTPDFAARHQLCGEPERLRDISFAMLRGNGGDAAFEWANWLRACRIPLRLSATGPRFSRQTALIEAILSGHGIGLARHSLISDELKSGRLIAAFGTPQPTASRYHLLTSPDRRRLPEIASLLALLREDIRSLEAAA | not soluble
2 | MGSDKIHHHHHHMRTVQAISGLVTSRFFGTSTRIMASGKTLNTSNINPNVIKMEYAVRGPIVIRAVELEKELATGAQKPFPNVIKANIGDAHAMGQKPITFIRQLLACIVNPEIMKTDKSIPSDVIEHANAFLGSCGGKSAGAYSQSTGVEIVRKHVAEYIKRRDGGIPCNSEDVCLSGGASESIRNVLKLFINHNNAKKVGVMIPIPQYPLYSATIEEFGLGQVGYYLSESSNWSMDEAELERSFNDHCKEYDIRVLCIINPGNPTGQALSRENIETIIKFAQKKNLFLMADEVYQDNVYAQGSQFHSFKKVLVEMGEPYNKMELASFHSVSKGYMGECGMRGGYVEFLNLDPEVYVLFKKMISAKLCSTVLGQAVIDAVVNPPKEGDASYALWKQEKDAVLASLKERATLVEKAYSSIDGISCNPVQGAMYAFPQITIPQRAVEKAQSLNQQPDFFYAMQLLETTGICIVPGSGFGQKDGTYHFRTTILPQPELFKDMLSRFTDFHQKFLAEYKRLYCHFHLTNNRTSDSFWHTLIDGFPKYKVFVQNRRSTQCAFHSIQLSRF | not soluble
3 | MGSDKIHHHHHHMRVALLMGGVSREREISLRSGERVKKALEKLGYEHTVFDVREDFLKKVDQLKSFDVVFNVLHGTFGEDVTLQAILDFLGIRYTGSDAFSSMICFDKLVTYRFLKGTVEIPDFVEIKEFMKTSPLGYPCVVKPRREGSSIGVFVCESDEEFQHALKEDLPRYGSVIVQKYIPGREMTVSILETEKGFEILPVLELRPKRRFYDYVAKYTKGETEFILPAPLNPSEERLVKEMALKAFVEAGCRGFGRVDGIFSDGRFYFLEINTVPGLTETSDLPASAKAGGIEFEELVEIILKSAFLKEGVRV | not soluble
4 | MGSDKIHHHHHHMRWFHKKGELARDGWQSVVDATTPGWEYTGIRIAELGSGESLELNDTGVERIFIPLQGSFDVAHHGQVTHLHGRKSVFDGPTDVLYLPTGQTATLSGQGRVAVAEAPTQEPKEWKYIAPAETPVELRGAGRSSRQVHNFGTPEALDAARLIVCEVITPGENWSSYPPHKHDEHIPGHESKLEEIYYFESAPSRVGGRAEAAEGAFGMFSTYSSPAGEIDINAMVYSGDIALVPFGYHGPAVAAPGYDLYYLNVMAGPDPERIWLINDDPAHAWVRDTWTGQAFDDRLPYENANKEG | not soluble
5 | MGSDKIHHHHHHMRYESSKKILVIEDDAVTRNLFLEVLEAQGFDTIGAEDGVAGIQKAQEHLPDLVICDIQMPDMDGYTVLARLRQDPHTAIIPFIFLTGSNTQTDVRKGMESGADDYLTKPSSIEDFLRAIAVRLEKQAFLRYWYATNSHQTAQSPPSSFNSESIFPSVPQLQAVFDFIEANYRQGITLSDVALAVGYSPAYLTNRVAKQTGETVNAWIVKRRMAAARPLLRDTNQTIDQIAIALGYQNTCHFSRQFRQHHGLSPKTWRKQQQLLQSSKNAKLQLIKNHDALEKLVPLGC | not soluble
6 | MGSDKIHHHHHHMSAAVERSPEEKRVIPVALSSASVYPLSVHDAFAVAQDLGFDGVEVMVTNNATSQSPHSLLELSHRYRQPIVSIHAPTLLLTQKVWGSAWNKIEMSCRMAREVGCGTVVVHPPFRWQNNYAENFPAGIRQLADMYQVRIAVENMYPWRVRGRETVAYLPHWDPLGQDYDDVTWDFSHAATAGANSVEAIKALGGKLRHIHLTDGSGSGRDEHLIPGRGNQGCAEALQHLAGSGFDGVVVAEISTRRAKFAGERELWLNETLKFARQHLSHPLVGAREA | not soluble
7 | MGSDKIHHHHHHMSADTLFPKLDIPATIAAGPGPGNTDARVLAAFSGAGLADHMHGDVLRGMVECKLMLRRIWGTDNIHTFGVAGTGWSGLDVMFSAVMPGDKVVVFTNGTFSGIDGLTVRMKAATAEELAANPLDPRPASVVIVDIPHGQSVTGEIVETALAEHKPKWAAMAHWETGSGRINDIAGFSAACERHDVMGLVDAVSSLGVEDFRIDDFPGVHGWASCPQKGICCLPLTYAPVSFTDRYIQTLRATGTRSFVHHPILEARHWGVIEGKDVDKGTYHRTHSAYAVAAFHEALRITLQQGVANRAKDYAYHEAALRRAVEALGCEVTSNMTSLVVLNLPGDLRGREMELVQNCRARNFGIWPTLSAPVQVRIGILNLLSRAAVTDIVTRFAEAIRELGGAGDEATALAALDAHYDNAIAAE | not soluble
8 | MGSDKIHHHHHHMSALLEVKGLNVSFRQDGRISQAVRGVSFTVNRGETVALVGESGSGKSVSALSTVSLLGDSAIVEGSVTYDGQEMIGASEQRLMDVRGNDISFIFQEPMTSLNPLHTIRKQMAESLALHQGLVGAAALERILELLVKVGIRDPETRLDAYPHQLSGGQRQRVMIAMALANKPDILIADEPTTALDVTIQAQILELLADLQREENMGMLFITHDLGIVRRIADRVCVMKAGEIVESGSTEEIFANPRHPYTRKLLAAEPKGRPDPVPAGAEEVARTDHLRVWFPIQRGFLRRTVGHVKAVNDASISVRAGETLGIVGESGSGKTTLALAIMRLIGSEGGITFRGEDVRSWSTRELRRLRKDMQIVFQDPFGSLSPRMTCAQIISEGLAIHKVDPHRAPRELVAEVMQEVGLDPATMDRYPHEFSGGQRQRIAIARAMVLRPRLLVLDEPTSALDMTVQVQIVALLRDLQRKYGLAYLFISHDLKVVRAMSHKVIVMRQGDVIEMGETEALFTNAQTDYTRSLIAAAG | not soluble
9 | MGSDKIHHHHHHMSAMLTVEGLGKSYRVWGSEWLRAASWFGLKVKPREEHWVLRNVGFSVTAGESIGIMGRNGAGKSTLLKLITGTSQPTEGRIVRRGRIAAILELGMGFNPDLSGRENARHSAGLMGYTLDQIEAVLPEIQEFAEIGDYFDEPVRTYSSGMQVRVAFAVATAFRPDVLIVDEALSVGDVYFQAKCFKRILSFKEKGMTLILVSHSVGDVVKHCDRAILIKDGGVYADGPSREVSNLYLDELFGKKPASLQAEAKDTPKDLRAGTEDLFHTRPYYNAGEHRWGQGGARILDYVVVSDGQEFPARVESGSRTAFYVKIAFDQDFDSVVPGILVKTLEGLFLYGTNSFLSSEGRTGIAAKAGDVIVCKFTMPLDLNEANYLISLGISSGDPLVELTPLDRRYDAIVLNVARGMQFWGMMDLKADFEIVEALS | not soluble
10 | MGSDKIHHHHHHMSAPLDIDQLQTFVAIADTGSFTKAADRVFKTQSAVSMQMRRLEERIGKPLFMKDGRGNRLTVEGDRLLNFARRMIRLNNEAIASFDDNRLEGTLRIGTPDDYADRYMPEIIVRFAKTHPNVELYIICEPSVDLAEKMAKGDLDIALVTHNPRARASDVVRTEPLCWVSSINHPLPENAPIPLAVGRRDCQWRQAACAALDATGKEYQILFTSWSSTVVAAAVLAGMAVSVLPESALRPGMKVLTLADGFPSLAPVQIGIMKRPGLSPSLSNAITNHITACLDNITPITVNDDLEGDLKGYPRYPRLRQSHMLPGW | not soluble
11 | MGSDKIHHHHHHMSARIPTLDITRFDSDREAFVAELGAAYRQWGFAGIRNHGIAQSDIDAAYEVFKAFFALPDEVKRSYHVPGSGGARGYTAFGVETAKDSKHFDLKEFWHIGREIPDDSPYRAVMAPNLWPTEVPGFRERGYHLYQQLDQLGSRVLSALALHIGLPQDYFADKTDHGNSILRPIHYPPITSDDIPNVRAGAHGDINFITLLVGASAAGLEVRSNEGEWVPFTADADTIVVNIGDMLQRLTNHVYPSTIHRVVNPPGEEARKPRYSVPFFLHPNPDFLIDVLPSCISADNPSRYPEPITAHGFLEERLREIKLK | not soluble
12 | MGSDKIHHHHHHMSAVTESVLESIISPVTMSEFLEEYWPVKPLVARGEVERFTSIPGFEKVRTLENVLAIYNNPVMVVGDAVIEESEGITDRFLVSPAEALEWYEKGAALEFDFTDLFIPQVRRWIEKLKAELRLPAGTSSKAIVYAAKNGGGFKAHFDAYTNLIFQIQGEKTWKLAKNENVSNPMQHYDLSEAPYYPDDLQSYWKGDPPKEDLPDAEIVNLTPGTMLYLPRGLWHSTKSDQATLALNITFGQPAWLDLMLAALRKKLISDNRFRELAVNHQSLHESSKSELNGYLESLIQTLSENAETLTPEQIFQSQDSDFDPYQSTQLVFRQLLTSYKF | soluble
